This note sets out measurements from IntAct's records for PubMed 23644599.

First the molecules themselves.
B1: mRNA decay activator protein ZFP36 (Homo sapiens), P26651 (parent)
chain: MDLTAIYESLLSLSPDVPVPSDHGGTESSPGWGSSGPWSLSPSDSSPSGVTSRLPGRSTSLVEGRSCGWVPPPPGFAPLAPRLGPELSPSPTSPTATSTTPSRYKTELCRTFSESGRCRYGAKCQFAHGLGELRQANRHPKYKTELCHKFYLQGRCPYGSRCHFIHNPSEDLAAPGHPPVLRQSISFSGLPSGRRTSPPPPGLAGPSLSSSSFSPSSSPPPPGDLPLSPSAFSAAPGTPLARRDPTPVCCPSCRRATPISVWGPLGGLVRTPSVQSLGSDPDEYASSGSSLGGSDSPVFEAGVFAPPQPVAAPRRLPIFNRISVSE

The variants in one assay derive from B1. The note with it: with CNOT1, A5YKK6-2.
CNOT1, A5YKK6-2, sequence (A5YKK6 other isoform, or with tags, fused parts or gaps): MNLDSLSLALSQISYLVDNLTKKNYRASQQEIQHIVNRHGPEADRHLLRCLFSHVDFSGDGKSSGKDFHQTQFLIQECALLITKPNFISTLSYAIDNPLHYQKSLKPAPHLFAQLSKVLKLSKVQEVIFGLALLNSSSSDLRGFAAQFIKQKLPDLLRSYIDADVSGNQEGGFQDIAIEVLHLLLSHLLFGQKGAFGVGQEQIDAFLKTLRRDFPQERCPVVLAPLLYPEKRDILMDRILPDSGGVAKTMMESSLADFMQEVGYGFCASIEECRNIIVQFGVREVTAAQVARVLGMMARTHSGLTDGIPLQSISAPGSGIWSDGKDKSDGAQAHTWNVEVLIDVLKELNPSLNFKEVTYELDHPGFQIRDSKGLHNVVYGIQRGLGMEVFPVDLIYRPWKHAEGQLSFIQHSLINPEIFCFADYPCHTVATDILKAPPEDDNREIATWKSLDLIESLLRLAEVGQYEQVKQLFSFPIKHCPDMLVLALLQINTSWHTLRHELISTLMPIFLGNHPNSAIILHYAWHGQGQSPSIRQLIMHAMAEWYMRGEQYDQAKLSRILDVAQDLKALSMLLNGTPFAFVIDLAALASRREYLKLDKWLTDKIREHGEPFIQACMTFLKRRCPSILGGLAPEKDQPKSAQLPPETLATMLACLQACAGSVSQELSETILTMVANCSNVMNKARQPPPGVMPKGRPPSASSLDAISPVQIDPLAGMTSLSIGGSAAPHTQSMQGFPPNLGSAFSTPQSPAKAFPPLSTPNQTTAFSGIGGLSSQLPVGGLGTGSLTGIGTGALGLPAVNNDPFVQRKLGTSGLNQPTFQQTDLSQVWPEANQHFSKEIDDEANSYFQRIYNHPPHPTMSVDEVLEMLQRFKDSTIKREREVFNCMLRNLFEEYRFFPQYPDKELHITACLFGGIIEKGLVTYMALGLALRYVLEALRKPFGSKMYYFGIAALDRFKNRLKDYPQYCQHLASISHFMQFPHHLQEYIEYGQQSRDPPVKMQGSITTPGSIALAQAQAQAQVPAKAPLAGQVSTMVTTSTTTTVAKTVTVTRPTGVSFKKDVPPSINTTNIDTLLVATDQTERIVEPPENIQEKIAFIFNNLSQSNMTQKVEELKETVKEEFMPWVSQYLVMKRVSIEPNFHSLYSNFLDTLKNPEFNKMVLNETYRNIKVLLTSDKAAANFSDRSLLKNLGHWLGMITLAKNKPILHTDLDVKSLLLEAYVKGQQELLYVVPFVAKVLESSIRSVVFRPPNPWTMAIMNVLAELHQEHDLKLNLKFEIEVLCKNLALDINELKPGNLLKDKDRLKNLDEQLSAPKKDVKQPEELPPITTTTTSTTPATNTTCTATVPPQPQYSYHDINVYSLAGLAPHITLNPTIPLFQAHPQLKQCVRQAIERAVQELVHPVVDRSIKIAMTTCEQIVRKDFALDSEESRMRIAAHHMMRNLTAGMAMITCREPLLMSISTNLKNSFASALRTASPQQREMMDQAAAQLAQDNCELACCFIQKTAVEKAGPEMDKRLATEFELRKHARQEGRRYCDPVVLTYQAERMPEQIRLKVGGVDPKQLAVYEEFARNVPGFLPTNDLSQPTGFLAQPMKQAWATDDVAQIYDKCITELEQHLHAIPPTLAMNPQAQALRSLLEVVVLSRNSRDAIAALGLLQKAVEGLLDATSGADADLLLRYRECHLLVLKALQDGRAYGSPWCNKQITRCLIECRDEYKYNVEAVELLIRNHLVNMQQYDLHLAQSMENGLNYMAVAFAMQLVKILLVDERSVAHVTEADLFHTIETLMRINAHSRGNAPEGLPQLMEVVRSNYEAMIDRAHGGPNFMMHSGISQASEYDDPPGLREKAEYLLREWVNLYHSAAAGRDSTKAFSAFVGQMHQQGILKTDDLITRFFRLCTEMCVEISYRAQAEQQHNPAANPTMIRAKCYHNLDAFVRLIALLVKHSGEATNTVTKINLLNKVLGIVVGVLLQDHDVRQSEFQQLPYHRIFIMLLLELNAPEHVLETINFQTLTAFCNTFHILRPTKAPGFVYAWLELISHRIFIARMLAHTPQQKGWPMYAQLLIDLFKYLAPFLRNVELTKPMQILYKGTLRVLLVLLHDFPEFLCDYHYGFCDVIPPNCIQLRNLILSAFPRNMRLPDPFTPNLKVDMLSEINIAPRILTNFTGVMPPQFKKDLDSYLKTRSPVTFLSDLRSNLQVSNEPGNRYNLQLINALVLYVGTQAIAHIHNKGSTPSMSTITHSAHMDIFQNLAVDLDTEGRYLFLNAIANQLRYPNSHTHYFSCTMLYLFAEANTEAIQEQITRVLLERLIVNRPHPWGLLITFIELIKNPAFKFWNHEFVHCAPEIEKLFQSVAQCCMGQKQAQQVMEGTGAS
For F319A, the “effect of a mutation on the interaction” value is “disrupting interaction strength”.

The variants in a further assay derive from B1. Conditions: with CNOT1, A5YKK6-2. The source holds these as a separate data set.
With R315A, the “effect of a mutation on the interaction” value is given as “disrupting interaction strength”.
